Results published in patent publication US20190055322A1 (Ablynx, published 2019).
Positions count from the first letter of the chain named.

B1: Nanobody 261 (5H01-40GS-2B10) (VHH)
chain: EVQLVESGGGLVQPGGSLRLSCAASGSTLDYYAIGWFRQAPGKEREGVSCTSNSGSTYYGGSVKGRFTASRDNAKNTVYLQMNSLRPEDTAVYYCVATIGCATLGGTLDVQRYYYRGQGTLVTVSSGGGGSGGGGSGGGGSGGGGSGGGGSGGGGSGGGGSGGGGSEVQLVESGGGLVQPGGSLRLSCAASGSIFSINNMGWYRQAPGKQRELVTVVTSNLITTYADSVKGRFTISRDNAKNTVYLQMNSLKPEDTAVYYCNAWARSVGSVPYSQFWGQGTLVTVSS
B2: Nanobody 2G09 (VHH)
VHH: EVQLVESGGGLVQPGGSLRLSCAASGSFGDNYELYAMTWFRQAPGERRDFVASVTGDGSTSYADSVKDRFTISRDNAKKLMYLQMNSLKPEDTAVYYCRLLNYWGQGTLVTVSS
B3: Nanobody 3B11 (VHH)
VHH: EVQLVESGGGLVQAGGSLRLSCAASGFTFDDYVIGWFRQAPGKEREGVSCISRLDGRTYYTDSVKGRFTISSDNAKNTVYLQMNSLKPEDTAVYYCALEPRYTGDYYPVHPELYDYWGQGTQVTVSS
B4: Nanobody 7C10 (VHH)
VHH: EVQLVESGGGLVQAGGSLRLSCTASGRTLSSYTMGWFRQAPGTEREFVAAMTRSGFNTYYADSVKGRFTISRDSTENTMALQMSSLKPEDTAVYYCTAGRGLTSYRADYWGQGTLVTVSS
B5: Nanobody 12B02 (VHH)
VHH: EVQLVESGGGLVQPGGSLRLSCAASGFSLGVFAIGWFRQAPGKEREGVSCIDSSDGRTTYADSVKGRFTISRDNAKNTVYLQMNSLKPEDTAVYYCATDIETDVCSGAGWGFWGQGTQVTVSS
B6: Nanobody 14B10 (VHH)
VHH: EVQLVESGGGLVQPGGSLRLSCAASGRIFSINNMGWYHQAPGKQRELVATITMNGITTYADSVKGRFTISRDNAKNTVYLQMNSLKPEDTAVYYCSCWVRSSGGDPYRDYWGQGTQVTVSS
B7: Nanobody 259 (1E11-40GS-5H01) (VHH)
chain: EVQLVESGGGLVQPGGSLRLSCAASGSTRSVNPMAWFRQAPGRQREWVATISRSGYATYADSVKGRFTISGDNAKSSVYLQMNSLKPEDTAVYYCVTGTYWGQGTLVTVSSGGGGSGGGGSGGGGSGGGGSGGGGSGGGGSGGGGSGGGGSEVQLVESGGGLVQPGGSLRLSCAASGSTLDYYAIGWFRQAPGKEREGVSCTSNSGSTYYGGSVKGRFTASRDNAKNTVYLQMNSLRPEDTAVYYCVATIGCATLGGTLDVQRYYYRGQGTLVTVSS
B8: Nanobody 257 (13F07-40GS-2B10) (VHH)
chain: EVQLVESGGGLVQAGGSLRLSCAASGNTFSTNPMYWYRQAEGKQRELVASISSRGITNYADSVRGRFSISRDNTKDTVYLQMNSLKPEDTAVYYCRLASLSSGTVYWGKGTLVTVSSGGGGSGGGGSGGGGSGGGGSGGGGSGGGGSGGGGSGGGGSEVQLVESGGGLVQPGGSLRLSCAASGSIFSINNMGWYRQAPGKQRELVTVVTSNLITTYADSVKGRFTISRDNAKNTVYLQMNSLKPEDTAVYYCNAWARSVGSVPYSQFWGQGTLVTVSS
B9: Nanobody 10C05 (VHH)
VHH: EVQLVESGGGLVQPGGSLRLSCAASGSIFSINTMGWYRQAPGKQRDLVASITMNQVPNYADSVQGRFTISRDNVRNTVHLQMNAVKPEDTADYFCNAWVRSSGASPYTNYWGQGTQVTVSS
B10: Nanobody 2B02 (VHH)
VHH: EVQLVESGGGLVQPGDSLRLSCAASGRILSINNMVWYRQAPGKQRELVAHITSSGSTGYADSVKGRFTISRDNAKNTFYLQMTNLNPEDTAVYYCNCWVSSDSNAPLKNYWGQGTQVTVSS
B11: Nanobody 5E02 (VHH)
VHH: EVQLVESGGGLVQPGGSLRLSCAASGITLDSIAICWFRQAPGKEREGVSCSRGSDGSTYYADSVKGRFTISRVNAKNTVYLQMNSLKPEDTAVYYCAAAPSIFYSGGYFPSGMDYWGKGTQVTVSS
B12: Nanobody 256 (13F07-40GS-5H01) (VHH)
chain: EVQLVESGGGLVQAGGSLRLSCAASGNTFSTNPMYWYRQAEGKQRELVASISSRGITNYADSVRGRFSISRDNTKDTVYLQMNSLKPEDTAVYYCRLASLSSGTVYWGKGTLVTVSSGGGGSGGGGSGGGGSGGGGSGGGGSGGGGSGGGGSGGGGSEVQLVESGGGLVQPGGSLRLSCAASGSTLDYYAIGWFRQAPGKEREGVSCTSNSGSTYYGGSVKGRFTASRDNAKNTVYLQMNSLRPEDTAVYYCVATIGCATLGGTLDVQRYYYRGQGTLVTVSS
B13: Nanobody 4C03 (VHH)
VHH: EVQLVESGGGLVQAGGSLRLSCVISASTVRNYDMGWFRQAPGKEREFVAAIDWSGGSTRYADSVKGRFTVSRDNAKNTVYLQMNSLKPEDTAVYYCVAAGFYNNYLRTAPNDWNYWGQGTLVTVSS
B14: Nanobody 4G10 (VHH)
VHH: B13 VHH with A26E, S27D, T28G, A50T, D52N, R59N, V79M, N84D, Y115D, L121Q
B15: Nanobody 11B09 (VHH)
VHH: EVQLVESGGGLVQAGGSLRLSCAASRLTFNHYNMGWFRQAPGKERERVAEVTWSGDKIYYVDSVKGRFTISRDNTPNPVYLYLQMNSLKPEDTAVYYCATAPRGLPYANGYWGQGTQVTVSS
B16: Nanobody 3E10 (VHH)
VHH: EVQLVESGGGLVQAGGSLRLSCTASGHTFSSYTMGWFRQAPGKEREFVAAMTRSGFNTHYSDSVKGRFTISRDNTSRDNTKITMALQMNSLKPEDTAVYYCTTGRGLTSYVANFWGQGTQVTVSS

Assays:
[1] = molecular target: T1, PcrV of P. aeruginosa strain PA103 (on TTSS-induced bacteria) (Pseudomonas aeruginosa strain PA103); assay: cell-based or functional assay
[2] = molecular target: T1, PcrV of P. aeruginosa strain PA103 (on …); assay: cell-based or functional assay; remark: listed apart in the source
[3] = molecular target: T1, PcrV of P. aeruginosa strain PA103 (on …); assay: cell-based or functional assay; remark: listed apart in the source
[4] = molecular target: T1, PcrV of P. aeruginosa strain PA103 (on …); assay: cell-based or functional assay; remark: listed apart in the source
[5] = molecular target: T2, recombinant PcrV protein (rPcrV), strain PAO1, amino acid residues 1-294, C-terminal His6 (Pseudomonas aeruginosa strain PAO1); assay: ELISA, periplasmic extract on biotinylated rPcrV
[6] = molecular target: T2, recombinant PcrV protein (rPcrV), …; assay: SPR ProteOn, periplasmic extract on immobilised rPcrV
[7] = molecular target: T1, PcrV of P. aeruginosa strain PA103 (on …); assay: cell-based or functional assay; remark: listed apart in the source
[8] = molecular target: GST-PcrV (strain PAO1, amino acid residues 1-294) (Pseudomonas aeruginosa strain PAO1); assay: SPR Biacore T100, GST-PcrV immobilised
Throughout, for cytotox assay (% inhibition), P3X63, PA103: test concentration or dose not given here.

Binder	% inhibition, P3X63 cytotoxicity assay, MOI 4 [4] [%]	IC50 (nM), P3X63 cytotoxicity assay, MOI 4 [4] [nM]	binding ELISA (OD 450 nm) [5] [OD 450 nm]	koff [6] [s⁻¹]	cytotox assay (% inhibition), P3X63, PA103 [7] [%]	other results
B1						% inhibition in P3X63 cytotoxicity assay, extract 1/150 [1]: 42%; Efficacy (%), P3X63 cytotoxicity, MOI 12 [2]: 100%; IC50 value (M), P3X63 cytotoxicity, MOI 12 [2]: 4.8e-10 M; Ratio (IC50 Fab 13.37/IC50 Nanobody), A549 cytotoxicity [3]: 1 fold
B2	55	4	2.37	0.001	45	
B3	54	1140	0.55	0.0027	26	
B4	100	42	2.55	0.00082	58	Kd [8]: 2 nM; koff [8]: 0.0018 s⁻¹; kon [8]: 1.2e+06 M⁻¹ s⁻¹
B5				4.4e-05	14	
B6				0.00092	20	% inhibition, P3X63 cytotoxicity assay, MOI 3 [4]: > 70%; IC50 (nM), P3X63 cytotoxicity assay, MOI 3 [4]: > 3000 nM
B7						% inhibition in P3X63 cytotoxicity assay, extract 1/150 [1]: 52%; Efficacy (%), P3X63 cytotoxicity, MOI 12 [2]: 100%; IC50 value (M), P3X63 cytotoxicity, MOI 12 [2]: 3.9e-11 M; Ratio (IC50 Fab 13.37/IC50 Nanobody), A549 cytotoxicity [3]: 9 fold
B8						% inhibition in P3X63 cytotoxicity assay, extract 1/150 [1]: 80%; Efficacy (%), P3X63 cytotoxicity, MOI 12 [2]: 100%; IC50 value (M), P3X63 cytotoxicity, MOI 12 [2]: 1.3e-10 M; Ratio (IC50 Fab 13.37/IC50 Nanobody), A549 cytotoxicity [3]: 10 fold
B9				0.0006	25	% inhibition, P3X63 cytotoxicity assay, MOI 3 [4]: 100%; IC50 (nM), P3X63 cytotoxicity assay, MOI 3 [4]: > 1000 nM
B10	100	1730	2.4	0.00037	46	
B11	100	38	2.43	0.00057	71	Kd [8]: 4 nM; koff [8]: 0.00068 s⁻¹; kon [8]: 180000 M⁻¹ s⁻¹
B12						% inhibition in P3X63 cytotoxicity assay, extract 1/150 [1]: 65%; Efficacy (%), P3X63 cytotoxicity, MOI 12 [2]: 100%; IC50 value (M), P3X63 cytotoxicity, MOI 12 [2]: 5.4e-11 M; Ratio (IC50 Fab 13.37/IC50 Nanobody), A549 cytotoxicity [3]: 21 fold
B13			0.89	0.0068	22	% inhibition, P3X63 cytotoxicity assay, MOI 1.5 [4]: > 20%; IC50 (nM), P3X63 cytotoxicity assay, MOI 1.5 [4]: 8890 nM
B14	100	105	2.6	0.00013	81	Kd [8]: 5 nM; koff [8]: 0.00065 s⁻¹; kon [8]: 140000 M⁻¹ s⁻¹
B15				0.0048	37	% inhibition, P3X63 cytotoxicity assay, MOI 3 [4]: 100%; IC50 (nM), P3X63 cytotoxicity assay, MOI 3 [4]: 100 nM
B16	94	48	2.51	0.0015	25	Kd [8]: 1 nM; koff [8]: 0.0039 s⁻¹; kon [8]: 2.7e+06 M⁻¹ s⁻¹
